Assay results published in patent US20160046728A1 (HENOGEN S A, published 2016).

Tests used:
[1] = target: plasma kallikrein (UniProt P03952 20-638); assay: SPR kinetics, Ir-CPI immobilized (about 200 RU), analyte at 6 concentrations from 5 nM to 300 nM
Protocol: Interaction kinetics were determined, for each analyte, with 6 different concentrations (from 5 nM to 300 nM). Binding data were analyzed using BIA evaluation software to determine the kinetic constants.
The ability of Ir-CPI to bind a (co)factor of coagulation or fibrinolysis was evaluated by surface plasmon resonance. […] Moreover, the kinetics of interaction between Ir-CPI and the four target factors (XIIa, XIa, plasmin and kallikrein) were measured after a new immobilization of Ir-CPI. […] Interaction kinetics were determined for each analyte, at 6 different concentrations (from 5 nM to 300 nM). The kinetic data obtained were individually processed with BIA evaluation software in order to determine the kinetics constants. […] FIG. 9 represents sensorgrams for interactions between coagulation factors and immobilized Ir-CPI measured by surface plasmon resonance. Ir-CPI was immobilized onto the surface of a sensor chip CM5 at level of 1500 resonance units (RUs). Contact factors (100 nM final concentration) were injected at a flow rate of 70 μl/min in HBS buffer, and association was monitored. After return to buffer flow, dissociation was monitored during 84 s. The sensor chip surface was regenerated by a pulse injection of 25 mM NaOH after each experiment.

[2] = target: factor XIa (UniProt P03951 19-625); assay: cell-based or functional assay
[3] = target: T1, factor XIIa (UniProt P00748 20-615, limits assumed); assay: cell-based or functional assay
T1 sequence (looked up): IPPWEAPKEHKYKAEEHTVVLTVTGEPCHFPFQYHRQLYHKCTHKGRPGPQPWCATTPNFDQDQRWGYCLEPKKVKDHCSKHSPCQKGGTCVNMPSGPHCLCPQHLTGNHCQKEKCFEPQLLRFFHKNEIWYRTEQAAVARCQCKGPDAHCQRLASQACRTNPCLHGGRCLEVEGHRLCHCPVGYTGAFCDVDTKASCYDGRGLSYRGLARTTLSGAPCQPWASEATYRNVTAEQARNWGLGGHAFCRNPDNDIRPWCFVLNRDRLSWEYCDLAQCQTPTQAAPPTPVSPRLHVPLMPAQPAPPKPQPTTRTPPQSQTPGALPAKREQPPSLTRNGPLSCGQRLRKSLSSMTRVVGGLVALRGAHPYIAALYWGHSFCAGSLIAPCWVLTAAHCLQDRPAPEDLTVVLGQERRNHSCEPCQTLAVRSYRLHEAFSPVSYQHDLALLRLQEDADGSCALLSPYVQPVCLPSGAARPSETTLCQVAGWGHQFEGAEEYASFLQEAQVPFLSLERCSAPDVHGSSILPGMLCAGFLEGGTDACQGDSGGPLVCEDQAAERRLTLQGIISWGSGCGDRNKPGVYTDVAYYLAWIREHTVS

[4] = target: T2, factor IX (UniProt P00740 47-461); assay: SPR (BIAcore 3000), Ir-CPI immobilized on CM5 chip, factor injected as analyte
T2 construct: also called fIX
Protocol: (§1) The interaction between Ir-CPI and coagulation or fibrinolytic factors was monitored using a BIAcore 3000 instrument (BIAcore AB, Sweden). Ir-CPI (15 μM) was immobilized on the surface of a CM5 sensor chip in 10 mM acetate buffer, pH 5.0, by the amine coupling procedure according to the manufacturer's instructions. 1500 resonance units (RU) of immobilized Ir-CPI were used for the assay. To subtract the non-specific component from the apparent binding response, a blank flow cell was prepared using the same immobilizing procedure without Ir-CPI. Binding analyses were carried out using HBS buffer (HEPES 10 mM, NaCl 150 mM, EDTA 3 mM; pH 7.4 with 0.005% surfactant P20) as running buffer at 25° C. 100 μl of each analyte (100 nM) was injected on the sensor chip at a flow rate of 70 μl/min Association was monitored during an 84 s injection of analyte. Dissociation was monitored for 3 min after return to the running buffer.
(§2) The ability of Ir-CPI to bind a (co)factor of coagulation or fibrinolysis was evaluated by surface plasmon resonance. […] Moreover, the kinetics of interaction between Ir-CPI and the four target factors (XIIa, XIa, plasmin and kallikrein) were measured after a new immobilization of Ir-CPI. […] Interaction kinetics were determined for each analyte, at 6 different concentrations (from 5 nM to 300 nM). The kinetic data obtained were individually processed with BIA evaluation software in order to determine the kinetics constants.

[5] = target: T3, factor X (UniProt P00742 41-488); assay: as above
T3 construct: also called fX
Protocol: as §1, §2

[6] = target: T4, factor VIIa (UniProt P08709 61-466); assay: as above
T4 construct: In the amidolytic and reconstituted assays it was used with tissue factor ('FT-FVIIa', 'tissue factor complex/factor VIIa'); In SPR it is printed only as 'fVIIa'; also called fVIIa; FVIIa
T4 sequence (looked up): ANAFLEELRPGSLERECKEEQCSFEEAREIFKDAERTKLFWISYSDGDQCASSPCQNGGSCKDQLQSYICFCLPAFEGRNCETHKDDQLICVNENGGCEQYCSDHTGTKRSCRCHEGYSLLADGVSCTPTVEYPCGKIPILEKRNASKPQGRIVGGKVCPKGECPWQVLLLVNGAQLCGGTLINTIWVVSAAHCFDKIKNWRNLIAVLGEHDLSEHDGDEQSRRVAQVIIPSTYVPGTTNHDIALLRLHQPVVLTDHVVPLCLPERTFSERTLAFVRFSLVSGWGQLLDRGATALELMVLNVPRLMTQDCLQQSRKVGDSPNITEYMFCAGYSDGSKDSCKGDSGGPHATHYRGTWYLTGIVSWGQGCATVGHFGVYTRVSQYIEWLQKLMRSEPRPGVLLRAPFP
Protocol: as §1, §2

[7] = target: plasminogen (UniProt P00747 20-810); assay: as above
Sequence of plasminogen (P00747 20-810 limits assumed): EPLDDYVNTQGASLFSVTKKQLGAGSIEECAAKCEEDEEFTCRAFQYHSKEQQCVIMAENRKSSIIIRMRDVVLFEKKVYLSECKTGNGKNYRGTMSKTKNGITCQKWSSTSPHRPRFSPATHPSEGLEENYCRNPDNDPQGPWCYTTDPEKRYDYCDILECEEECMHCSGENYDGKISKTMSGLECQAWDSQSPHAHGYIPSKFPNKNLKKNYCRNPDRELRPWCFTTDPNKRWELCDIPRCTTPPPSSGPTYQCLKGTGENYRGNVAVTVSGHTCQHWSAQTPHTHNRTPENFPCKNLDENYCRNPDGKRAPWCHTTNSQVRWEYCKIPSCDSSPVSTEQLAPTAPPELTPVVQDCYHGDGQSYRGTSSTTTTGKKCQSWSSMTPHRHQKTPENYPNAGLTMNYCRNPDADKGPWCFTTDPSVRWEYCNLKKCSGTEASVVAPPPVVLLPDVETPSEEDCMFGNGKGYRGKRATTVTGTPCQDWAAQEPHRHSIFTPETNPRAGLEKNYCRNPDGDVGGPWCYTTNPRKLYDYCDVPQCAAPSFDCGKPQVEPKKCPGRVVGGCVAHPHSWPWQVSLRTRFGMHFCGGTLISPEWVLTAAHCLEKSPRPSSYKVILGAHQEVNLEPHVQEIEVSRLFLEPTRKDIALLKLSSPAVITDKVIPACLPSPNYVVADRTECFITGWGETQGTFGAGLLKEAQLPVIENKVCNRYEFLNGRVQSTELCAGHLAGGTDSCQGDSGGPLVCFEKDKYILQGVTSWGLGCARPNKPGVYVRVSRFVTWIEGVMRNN
Protocol: as §1, §2

[8] = target: T5, thrombin (UniProt P00734 328-622); assay: as above
T5 construct: also called factor IIa; IIa
Protocol: as §1, §2

[9] = target: T6, high molecular weight kininogen (UniProt P01042 19-644); assay: as above
T6 construct: also called HMWK
T6 sequence (looked up): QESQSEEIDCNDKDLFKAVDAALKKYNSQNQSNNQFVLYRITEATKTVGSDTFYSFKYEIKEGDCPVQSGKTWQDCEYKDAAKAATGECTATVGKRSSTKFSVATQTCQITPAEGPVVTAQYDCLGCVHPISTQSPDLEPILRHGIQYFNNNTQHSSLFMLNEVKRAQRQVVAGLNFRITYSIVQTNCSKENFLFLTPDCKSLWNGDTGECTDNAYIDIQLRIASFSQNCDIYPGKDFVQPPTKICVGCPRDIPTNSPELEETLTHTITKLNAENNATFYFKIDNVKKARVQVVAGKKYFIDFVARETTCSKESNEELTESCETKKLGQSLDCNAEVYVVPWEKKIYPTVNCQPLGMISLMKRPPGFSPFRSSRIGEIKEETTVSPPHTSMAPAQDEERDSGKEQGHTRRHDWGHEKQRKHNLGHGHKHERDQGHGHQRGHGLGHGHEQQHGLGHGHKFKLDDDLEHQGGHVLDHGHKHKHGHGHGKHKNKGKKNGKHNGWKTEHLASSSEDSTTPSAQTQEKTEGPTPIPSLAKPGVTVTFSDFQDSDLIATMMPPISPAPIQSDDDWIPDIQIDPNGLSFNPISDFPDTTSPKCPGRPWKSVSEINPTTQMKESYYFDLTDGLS
Protocol: as §1, §2

[10] = target: t-PA (UniProt P00750 36-562); assay: as above
Sequence of t-PA (P00750 36-562 limits assumed): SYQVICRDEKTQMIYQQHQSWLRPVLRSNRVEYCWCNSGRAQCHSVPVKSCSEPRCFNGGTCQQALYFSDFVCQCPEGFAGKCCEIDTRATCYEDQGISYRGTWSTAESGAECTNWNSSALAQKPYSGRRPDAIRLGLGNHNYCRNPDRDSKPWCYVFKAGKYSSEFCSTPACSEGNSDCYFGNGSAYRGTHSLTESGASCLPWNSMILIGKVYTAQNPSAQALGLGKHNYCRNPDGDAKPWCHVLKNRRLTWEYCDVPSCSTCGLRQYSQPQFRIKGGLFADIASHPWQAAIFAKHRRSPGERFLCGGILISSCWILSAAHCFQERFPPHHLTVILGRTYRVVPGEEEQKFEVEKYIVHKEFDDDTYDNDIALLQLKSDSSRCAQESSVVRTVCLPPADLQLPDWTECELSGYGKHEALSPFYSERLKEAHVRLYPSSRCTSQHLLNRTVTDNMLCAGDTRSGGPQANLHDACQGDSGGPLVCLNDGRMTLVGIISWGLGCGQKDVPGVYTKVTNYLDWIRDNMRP
Protocol: as §1, §2

Sequence of plasma kallikrein (P03952 20-638 limits assumed): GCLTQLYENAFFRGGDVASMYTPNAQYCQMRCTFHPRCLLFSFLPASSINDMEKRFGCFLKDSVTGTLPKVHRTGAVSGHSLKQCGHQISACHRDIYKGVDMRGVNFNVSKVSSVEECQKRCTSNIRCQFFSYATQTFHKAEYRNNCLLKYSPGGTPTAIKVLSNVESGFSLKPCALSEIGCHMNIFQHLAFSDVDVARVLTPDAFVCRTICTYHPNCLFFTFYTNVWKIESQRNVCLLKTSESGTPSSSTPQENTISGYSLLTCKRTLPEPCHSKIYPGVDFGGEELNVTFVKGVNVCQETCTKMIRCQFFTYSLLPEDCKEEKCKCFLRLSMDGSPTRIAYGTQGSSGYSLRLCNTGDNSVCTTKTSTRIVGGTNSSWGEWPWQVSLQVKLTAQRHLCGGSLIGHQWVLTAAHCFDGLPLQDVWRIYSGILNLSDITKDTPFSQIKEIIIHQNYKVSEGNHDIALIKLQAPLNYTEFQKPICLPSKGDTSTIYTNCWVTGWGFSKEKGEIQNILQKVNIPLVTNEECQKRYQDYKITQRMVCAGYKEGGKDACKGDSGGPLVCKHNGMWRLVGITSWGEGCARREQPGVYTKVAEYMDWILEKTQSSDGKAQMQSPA

B1: Ir-CPI (Ixodes ricinus Contact Phase Inhibitor), recombinant (other)
chain: ANHKGRGRPAKCKLPPDDGPCRARIPSYYFDRKTKTCKEFMYGGCEGNENNFENITTCQEECRAKKV
notes: Kunitz-type protein; Made in E. coli as a GST fusion (pGEX-6P-1), released with PreScission protease and gel filtered; In the SPR assay it was amine-coupled to a CM5 chip; also called ID; NO; 7 without its peptide signal
[1]
  Kd: 200 nM
[2]
  EC50 (µg/mL) of inhibition of FXI coagulation activity, aPTT-based assay in human plasma with FXI deficient plasma: 1.41 µg/mL
[3]
  EC50 (µg/mL) of inhibition of FXII coagulation activity, aPTT-based assay in human plasma with FXII deficient plasma: 1.38 µg/mL
[4]
  binding result: no binding (tested: 100 nM)
[5]
  binding result: no binding (tested: 100 nM)
[6]
  binding result: no binding (tested: 100 nM)
[7]
  binding result: no binding (tested: 100 nM)
[8]
  binding result: no binding (tested: 100 nM)
[9]
  binding result: no binding (tested: 100 nM)
[10]
  binding result: no binding (tested: 100 nM)
